{"source": "patent US20220195059A1", "about": "“Rank Pathway Inhibitors in Combination with CDK Inhibitors” (INSTITUTO DE MEDICINA MOLECULAR JOÃO LOBO ANTUNES, priority 2019, published 2022)", "molecules": {"B1": {"name": "sRANKL: soluble RANK ligand used as stimulus (protein)", "chain": "EKAMVDGSWLDLAKRSKLEAQPFAHLTINATDIPSGSHKVSLSSWYHDRGWAKISNMTFSNGKLIVNQDGFYYLYANICFRHHETSGDLATEYLQLMVYVTKTSIKIPSSHTLMKGGSTKYWSGNSEFHFYSINVGGFFKLRSGEEISIEVSNPSLLDPDQDATYFGAFKVRDID"}}, "key": {"MCF-7 RANK OE xenografts": {"system": "MCF-7 RANK OE xenografts", "assay": "MCF-7^OE orthotopic xenograft growth with exogenous sRANKL", "format": "in vivo, NSG mice", "settings": "human sRANKL 0.5 mg/every 48 h s.c. vs vehicle; eight weeks", "method": "Nod scid gamma (NSG) mice were inoculated in the 2nd thoracic mammary fat pad with MCF-7 RANK OE GFP+Luc+ (RANK OE) cells (n=3-4/group). Mice were treated with human sRANKL 0.5 mg/every 48 h s.c. or vehicle (PBS). Tumors were imaged by bioluminescence every week post tumor inoculation untill the end of the experience (eight weeks). FIG. 10A is a graph of the total flux (p/s) measured at the end of experiment. FIG. 10B is a graph of tumor weight at the time of sacrifice for tumors derived from MCF-7 OE cells taken from mice treated with (+) or without (−) sRANKL. FIG. 10C is a graph of the Ki67-positive stained cells from tumors derived from MCF-7 OE cells taken from mice treated with (+) or without (−) sRANKL. Data is presented as mean±SEM. p-value was calculated using 2-way ANOVA or unpaired t-test, *p<0.05, **p<0.01, ***p<0.001.\nTumor growth was monitored weekly by luminescence analysis.\nTo determine whether the decreased proliferation rate was due to RANKL availability, NSG mice were inoculated with one of Parental, RANK OE, or Mix cells, as described above, and treated with human soluble RANKL or vehicle control subcutaneously."}, "[1]": {"system": "RANKL-driven RANK pathway activation (ERK, AKT phosphorylation)", "assay": "RANKL stimulation and RANKL neutralization, western blot", "format": "cell-based, human", "settings": "1 μg/ml RANKL; serum starved cells", "method": "It was also confirmed that OPG-Fc is able to neutralize RANKL. Protein expression was assessed by western blot. Cells were seeded in 6-well plates, serum starved for 24 h, and exposed to 1 μg/ml RANKL for the indicated time points (FIG. 26A). For RANKL neutralization (FIG. 26B), RANKL was previously incubated for 60 min at 37° C. in serum-depleted medium±100 ng/ml OPG-Fc or 2.5 μg/ml MAB626, and proteins analyzed after 60 min. β-Actin was used as loading control and band intensity was quantified using FiJi. […] In the presence of OPG-Fc or the anti-RANKL monoclonal antibody MAB626, RANKL-driven RANK pathway activation was decreased (FIG. 26B).\n(§1) For this purpose, 4×10^5 cells were seeded in 6-well plates for 24 h, and serum-starved in low-serum medium (0,1% FBS, 1% Pen/Step) for another 24 h. […] Total protein was quantified using Pierce BCA Protein Assay Kit (ThermoSicentific), according to manufacturer's instructions. […]\n(§2) Membranes were blocked for 1 h at room temperature (RT) in 5% Non-Fat Dry Milk (NFDM) in PBS-0.1% Tween (PBST) for β-actin; or in 5% bovine serum albumin (BSA) (Santa Cruz) for other antibodies. […] Proteins were detected using a Novex® ECL HRP chemiluminescent substrate reagent kit (Invitrogen) according to the manufacturer's instructions, and x-ray films (Fujifilm) developed in a Curix 60 processor (AGFA), or the Amersham™ Imager 680 (GE Healthcare Life Sciences)."}, "[2]": {"system": "phosphorylation of IkBα, NFkB, ERK and AKT in MCF-7 OE and T47D OE cells", "assay": "RANK signalling after sRANKL stimulation of RANK OE cells, western blot", "format": "cell-based, human", "settings": "1 μg/mL sRANKL", "method": "FIG. 1C provides data that show the activation of RANK signaling pathway. After 24 h in low-serum medium, MCF-7 and T47D cells, or their RANK-overexpressing counterparts MCF-7^OE and T47D^OE, were stimulated with 1 μg/mL soluble RANK ligand (sRANKL) for 0, 5, 10, 20, 40, or 60 min (top panel) or 0, 5, 10, or 25 min (bottom panel). Cell lysates were western blotted using the antibody specific for the indicated protein (IκBα; NK-κB p65; ERK1/2; AKT), or for a phosphorylated version thereof (p-IκBα (Ser32); p-NK-κB p65 (Ser536); p-ERK1/2; p-AKT). β-Actin was used as loading control.\nas §1\nas §2, with “Sciences). […]” for “Sciences).”"}}, "data": [{"molecule": "B1", "values": [{"measurement": "tumor growth", "setting": "MCF-7 RANK OE xenografts", "result": "did not affect"}, {"measurement": "phosphorylation of RANK-downstream factors, like ERK and AKT", "setting": "[1]", "result": "drives the phosphorylation"}, {"measurement": "RANK pathway activity after stimulation", "setting": "[2]", "result": "increased RANK pathway activity"}]}]}
